The target in assay [1] is T1, recombinant mouse αvβ8 integrin (mouse, UniProt P43406 31-988; Q0VBD0 22-681, limits assumed).
T1 construct: Recombinant protein immobilised on the Biacore chip
Kind of assay: SPR (Biacore), additional experiments. The protocol: (§1) More specifically, recombinant αvβ8 integrin (e.g., R&D Systems) was biotin labeled via primary amines and immobilized on a Sensor Chip SA using a Biacore™ T200 instrument (GE Healthcare Life Sciences). Fab binding experiments were performed at 25° C. using a 30 μl/min flow rate in 0.01 M HEPES pH 7.4, 0.15 M NaCl, 1-2 mM MgCl₂, and 0.005% v/v surfactant P20 (HBS-P) buffer. Association was monitored for 5-10 minutes and dissociation for a further 15-20 minutes for each Fab concentration. After each injection, the chip surface was regenerated with IgG elution buffer (Thermo Fisher Scientific). All data was analyzed using the Biacore™ T200 Evaluation software. Data was dual background subtracted using the adjacent flow cell coupled with streptavidin without captured integrin, and buffer only injections. Kinetic constants for at least three experiments were obtained and reported as the mean.
On the technique in general: Surface plasmon resonance follows binding to a sensor surface in real time, without labels.

Assay [2] deals with T2, recombinant cynomolgus monkey αvβ8 integrin (cynomolgus monkey, limits assumed).
T2 construct: Recombinant protein immobilised on the Biacore chip; also called cyno αvβ8; cynomolgus αvβ8
T2 chain 1: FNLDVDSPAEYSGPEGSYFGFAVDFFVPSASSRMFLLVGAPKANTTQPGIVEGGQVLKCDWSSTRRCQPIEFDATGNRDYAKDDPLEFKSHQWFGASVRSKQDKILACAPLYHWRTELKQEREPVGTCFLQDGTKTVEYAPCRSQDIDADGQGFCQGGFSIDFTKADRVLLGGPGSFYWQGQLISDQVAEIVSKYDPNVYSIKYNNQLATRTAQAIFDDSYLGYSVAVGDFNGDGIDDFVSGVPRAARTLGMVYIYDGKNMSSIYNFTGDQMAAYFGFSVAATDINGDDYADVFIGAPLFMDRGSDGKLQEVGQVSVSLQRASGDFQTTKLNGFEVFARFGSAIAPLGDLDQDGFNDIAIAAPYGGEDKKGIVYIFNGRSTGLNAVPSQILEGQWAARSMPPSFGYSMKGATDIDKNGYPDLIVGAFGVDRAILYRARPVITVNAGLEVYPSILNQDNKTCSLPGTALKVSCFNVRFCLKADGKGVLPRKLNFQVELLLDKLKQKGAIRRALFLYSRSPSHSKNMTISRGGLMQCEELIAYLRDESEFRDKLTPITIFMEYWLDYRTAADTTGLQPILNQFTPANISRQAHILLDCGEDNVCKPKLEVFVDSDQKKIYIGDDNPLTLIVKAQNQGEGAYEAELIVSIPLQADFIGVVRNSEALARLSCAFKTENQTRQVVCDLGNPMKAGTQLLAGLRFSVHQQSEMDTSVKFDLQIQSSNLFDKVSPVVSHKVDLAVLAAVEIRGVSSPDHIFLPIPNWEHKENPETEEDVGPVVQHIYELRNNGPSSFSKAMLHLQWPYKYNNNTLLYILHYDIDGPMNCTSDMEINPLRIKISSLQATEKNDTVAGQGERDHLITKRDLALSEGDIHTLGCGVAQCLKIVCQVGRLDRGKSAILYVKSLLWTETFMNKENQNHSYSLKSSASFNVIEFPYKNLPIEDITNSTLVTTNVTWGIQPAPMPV
T2 chain 2: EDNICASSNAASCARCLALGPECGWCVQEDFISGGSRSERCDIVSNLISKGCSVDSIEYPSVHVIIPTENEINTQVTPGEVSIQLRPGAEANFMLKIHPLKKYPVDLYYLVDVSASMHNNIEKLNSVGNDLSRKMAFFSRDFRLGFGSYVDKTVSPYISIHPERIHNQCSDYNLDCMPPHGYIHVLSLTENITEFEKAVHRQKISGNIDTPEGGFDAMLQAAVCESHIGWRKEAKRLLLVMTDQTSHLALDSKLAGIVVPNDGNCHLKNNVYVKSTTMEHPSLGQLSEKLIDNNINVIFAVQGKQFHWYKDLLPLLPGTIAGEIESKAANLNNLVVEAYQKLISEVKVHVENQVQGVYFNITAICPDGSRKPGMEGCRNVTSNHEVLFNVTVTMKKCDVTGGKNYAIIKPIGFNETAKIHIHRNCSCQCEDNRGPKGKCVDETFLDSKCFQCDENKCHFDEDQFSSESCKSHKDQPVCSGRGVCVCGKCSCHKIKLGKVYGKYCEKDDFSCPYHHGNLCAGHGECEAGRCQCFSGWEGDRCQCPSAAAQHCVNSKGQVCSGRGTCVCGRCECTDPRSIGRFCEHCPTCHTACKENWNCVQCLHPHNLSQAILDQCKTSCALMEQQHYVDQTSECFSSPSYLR
Put plainly: SPR (Biacore), additional experiments. The protocol: as §1

The target in assay [3] is T3, recombinant human αvβ6 integrin (human, UniProt P06756 31-992; P18564 22-707).
T3 construct: Used in ELISA and immobilised on the Biacore chip; construct not described; also called hαvβ6; AVB6
T3 sequence (P18564 22-707 limits assumed, one chain of several): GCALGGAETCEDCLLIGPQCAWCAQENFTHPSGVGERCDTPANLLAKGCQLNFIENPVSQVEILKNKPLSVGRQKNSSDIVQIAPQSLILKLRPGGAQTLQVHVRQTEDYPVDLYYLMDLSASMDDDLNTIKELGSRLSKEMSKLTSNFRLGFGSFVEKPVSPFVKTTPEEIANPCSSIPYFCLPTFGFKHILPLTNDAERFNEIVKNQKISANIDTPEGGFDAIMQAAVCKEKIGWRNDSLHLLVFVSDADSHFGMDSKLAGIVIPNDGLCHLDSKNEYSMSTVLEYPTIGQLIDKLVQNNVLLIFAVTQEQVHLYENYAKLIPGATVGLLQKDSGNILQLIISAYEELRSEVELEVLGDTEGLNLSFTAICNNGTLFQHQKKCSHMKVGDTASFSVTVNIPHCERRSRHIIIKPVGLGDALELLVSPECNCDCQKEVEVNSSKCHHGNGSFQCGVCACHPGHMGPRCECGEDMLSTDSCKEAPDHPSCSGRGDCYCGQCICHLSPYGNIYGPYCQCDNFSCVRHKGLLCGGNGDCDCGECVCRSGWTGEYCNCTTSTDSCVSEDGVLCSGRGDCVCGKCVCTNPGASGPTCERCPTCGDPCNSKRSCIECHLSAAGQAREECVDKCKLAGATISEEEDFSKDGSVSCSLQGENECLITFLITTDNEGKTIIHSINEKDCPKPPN
Kind of assay: SPR (Biacore).

The target in assay [4] is T4, recombinant human αvβ3 integrin (human, UniProt P06756 31-992; P05106 27-718).
T4 construct: Used in ELISA and immobilised on the Biacore chip; construct not described; also called hαvβ3; AVB3
T4 sequence (P05106 27-718 limits assumed, one chain of several): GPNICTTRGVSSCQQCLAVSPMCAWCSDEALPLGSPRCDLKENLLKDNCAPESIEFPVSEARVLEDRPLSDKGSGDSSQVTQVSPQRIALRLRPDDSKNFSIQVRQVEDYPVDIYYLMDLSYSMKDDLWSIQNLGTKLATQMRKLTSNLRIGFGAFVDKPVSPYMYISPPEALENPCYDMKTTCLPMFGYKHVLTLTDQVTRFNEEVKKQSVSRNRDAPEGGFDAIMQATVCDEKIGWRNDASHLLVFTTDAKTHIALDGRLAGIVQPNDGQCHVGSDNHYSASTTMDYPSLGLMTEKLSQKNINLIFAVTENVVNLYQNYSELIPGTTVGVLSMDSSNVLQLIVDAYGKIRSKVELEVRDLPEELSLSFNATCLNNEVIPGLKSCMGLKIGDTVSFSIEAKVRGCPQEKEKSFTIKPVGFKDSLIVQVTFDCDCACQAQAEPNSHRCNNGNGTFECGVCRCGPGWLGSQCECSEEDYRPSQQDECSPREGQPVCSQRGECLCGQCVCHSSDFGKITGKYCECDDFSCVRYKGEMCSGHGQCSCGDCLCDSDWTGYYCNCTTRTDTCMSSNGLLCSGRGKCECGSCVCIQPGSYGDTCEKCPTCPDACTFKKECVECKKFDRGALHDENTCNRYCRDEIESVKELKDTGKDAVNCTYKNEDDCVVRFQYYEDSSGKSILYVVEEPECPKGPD
Put plainly: SPR (Biacore).

For assay [5], the target named is T1, recombinant mouse αvβ8 integrin. Kind of assay: SPR (Biacore T200), Fab over biotinylated recombinant αvβ8 on streptavidin chip, n>=3. The protocol:
as §1
(§2) To evaluate the monomeric KD of the Fab ADWA11 2.4, also referred to herein as ADWA-11 VH05-2/VK01(2.4) and ADWA11 5-2 2.4, and the parental mouse IgG, recombinant human, cynomolgus, mouse, and rat αvβ8 was immobilized on a Biacore chip and the ka and kd of the Fabs were determined as generally described herein (Table 6).

Assay [6] addresses T2, recombinant cynomolgus monkey αvβ8 …. Described as above. The protocol:
as §1, §2

Assay [7] addresses T5, recombinant rat αvβ8 integrin (rat, UniProt F1LZX9 31-987; A0A0G2JVU1 43-682).
T5 construct: Recombinant protein immobilised on the Biacore chip
The description is as above. The protocol: as §1, §2

Assay [8] concerns the target recombinant human αvβ8 integrin (human) (UniProt P06756). Kind of assay: SPR (Biacore), additional experiments.
Assay [9] shares this target. Put plainly: SPR (Biacore T200), Fab over biotinylated recombinant αvβ8 on streptavidin chip, n>=3.
Assay [10] addresses human αvβ8 integrin on U251 cells (human, UniProt P06756 31-1048). Put plainly: flow cytometry, Fab binding to fixed U251 cells (MFI APC-A); EC50 unit inferred, axis Log10 [Ab] (nM). For orientation: A flow cytometer gives signals particle by particle.

Bounds are passed on as bounds.

T1 sequence (P43406 31-988 limits assumed, chain 1 of 2): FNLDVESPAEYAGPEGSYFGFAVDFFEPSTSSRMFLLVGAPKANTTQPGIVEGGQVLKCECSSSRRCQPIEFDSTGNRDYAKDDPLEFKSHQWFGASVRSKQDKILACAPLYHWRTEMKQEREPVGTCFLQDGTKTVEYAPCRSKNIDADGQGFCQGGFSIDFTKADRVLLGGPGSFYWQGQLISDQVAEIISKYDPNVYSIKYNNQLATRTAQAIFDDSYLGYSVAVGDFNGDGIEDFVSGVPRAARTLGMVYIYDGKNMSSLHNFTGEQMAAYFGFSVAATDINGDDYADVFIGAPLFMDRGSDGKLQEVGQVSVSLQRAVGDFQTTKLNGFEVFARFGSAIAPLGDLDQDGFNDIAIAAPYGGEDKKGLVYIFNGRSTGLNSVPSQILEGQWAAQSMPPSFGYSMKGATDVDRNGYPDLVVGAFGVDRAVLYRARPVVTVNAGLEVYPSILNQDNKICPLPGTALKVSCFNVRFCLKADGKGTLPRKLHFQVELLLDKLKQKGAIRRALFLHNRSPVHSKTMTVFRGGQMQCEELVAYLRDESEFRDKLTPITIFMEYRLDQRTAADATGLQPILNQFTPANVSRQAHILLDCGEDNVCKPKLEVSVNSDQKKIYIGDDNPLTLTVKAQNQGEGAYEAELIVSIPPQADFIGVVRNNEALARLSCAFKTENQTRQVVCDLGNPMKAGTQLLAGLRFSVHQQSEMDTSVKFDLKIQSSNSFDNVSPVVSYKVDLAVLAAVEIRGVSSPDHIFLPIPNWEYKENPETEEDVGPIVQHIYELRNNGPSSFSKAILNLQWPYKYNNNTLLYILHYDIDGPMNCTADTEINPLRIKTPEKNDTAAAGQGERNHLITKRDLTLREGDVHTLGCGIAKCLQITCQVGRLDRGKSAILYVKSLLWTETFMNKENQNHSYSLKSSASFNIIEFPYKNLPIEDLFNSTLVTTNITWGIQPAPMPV
T1 sequence (Q0VBD0 22-681 limits assumed, chain 2 of 2): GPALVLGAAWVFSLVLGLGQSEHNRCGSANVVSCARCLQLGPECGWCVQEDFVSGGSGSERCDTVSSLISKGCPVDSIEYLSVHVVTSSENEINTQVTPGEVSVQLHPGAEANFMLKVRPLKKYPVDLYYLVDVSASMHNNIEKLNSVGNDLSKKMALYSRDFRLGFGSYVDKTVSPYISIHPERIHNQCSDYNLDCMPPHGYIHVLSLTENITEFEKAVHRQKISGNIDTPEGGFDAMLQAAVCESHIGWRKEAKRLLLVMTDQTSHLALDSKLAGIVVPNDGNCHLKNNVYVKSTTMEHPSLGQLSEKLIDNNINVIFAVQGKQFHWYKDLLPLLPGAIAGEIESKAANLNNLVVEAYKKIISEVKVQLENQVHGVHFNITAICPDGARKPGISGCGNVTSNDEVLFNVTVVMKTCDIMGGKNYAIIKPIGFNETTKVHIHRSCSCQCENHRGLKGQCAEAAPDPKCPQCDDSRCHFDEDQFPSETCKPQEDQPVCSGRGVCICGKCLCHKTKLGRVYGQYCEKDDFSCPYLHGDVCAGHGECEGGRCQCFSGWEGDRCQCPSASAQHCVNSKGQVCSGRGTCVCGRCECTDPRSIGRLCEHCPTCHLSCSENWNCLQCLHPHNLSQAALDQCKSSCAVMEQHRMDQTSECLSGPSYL

B1: ADWA11 2.4 Fab (Fab, V domains shown)
VH: EVQLVESGGGLVQPGGSLRLSCAASGFNIKDYYMNWVRQAPGKGLEWVGWIDPDQGNTIYEPKFQGRFTISADTSKNSAYLQMNSLRAEDTAVYYCARRLLMDYWGQGTLVTVSS
VL: DIQMTQSPSSLSASVGDRVTITCRSTKSLSHFNGNTYLFWYQQKPGKAPKRLIYYMSSLASGVPSRFSGSGSGTDFTLTISSLQPEDFATYYCQQSLEYPFTFGGGTKVEIK
notes: Fab; also called ADWA11 5-2 2.4; ADWA11_5-2 2.4 Fab
With B1, the Kd is 0.0708 nM in assay [1]; less than 0.1 nM in [2]; no more than 0.2 nM in [5]; no more than 0.2 nM in [6]; no more than 0.2 nM in assay [7]; less than 0.1 nM in [8]. The Kd in [9] is less than 0.2 nM. For the same molecule, the binding result in assay [3] and in assay [4] was “no binding” in each case. The off-rate constant (koff) in assay [5] is 1.82e-05 s⁻¹; in assay [6], no more than 2e-05 s⁻¹; in [7] it was no more than 2e-05 s⁻¹; in assay [9] it was less than 3e-05 s⁻¹. Also, the association rate constant (kon) in assay [5] was 257000 M⁻¹ s⁻¹; in assay [6], 172000 M⁻¹ s⁻¹; in assay [7], 341000 M⁻¹ s⁻¹; in assay [9], 161000 M⁻¹ s⁻¹. The half-maximal effective concentration (EC50) in assay [10] came out at 0.205 nM.

The Kd is the concentration at which binding is half-saturated. Usually koff stands for the first-order rate constant of dissociation. The kon is the rate constant with which the complex forms. The EC50 is the midpoint of the concentration-response curve.
